The target of data set [1] is ^bioχψδγ3δ’ clamp loader complex containing N-terminally biotinylated χ (E. coli) (UniProt P28905). As to the kind of experiment: SPR. For orientation: Surface plasmon resonance follows binding to a sensor surface in real time, without labels.
The target is the same in data set [2]. As to the kind of experiment: SPR. This is another data set of the same source.
The data set “cryo-EM structure” concerns the molecule itself. As to the kind of experiment: cryo-EM structure.

Where two headings read alike, the source gives them in different places.

Results on two molecules are retold here after paper PMC11436948 (Nature Communications, 2024).

What is called Kd is a measure of binding affinity in units of concentration. Read a high Kd as weaker binding.

With “E. coli β2 sliding clamp (from UniProt P0A988) (natural protein)”, the Kd in data set [1] stood at 400 nM; in data set [2] it was 13.3 nM.

B1: γ subunit of the E. coli clamp loader complex (natural protein)
chain: MSYQVLARKWRPQTFADVVGQEHVLTALANGLSLGRIHHAYLFSGTRGVGKTSIARLLAKGLNCETGITATPCGVCDNCREIEQGRFVDLIEIDAASRTKVEDTRDLLDNVQYAPARGRFKVYLIDEVHMLSRHSFNALLKTLEEPPEHVKFLLATTDPQKLPVTILSRCLQFHLKALDVEQIRHQLEHILNEEHIAHEPRALQLLARAAEGSLRDALSLTDQAIASGDGQVSTQAVSAMLGTLDDDQALSLVEAMVEANGERVMALINEAAARGIEWEALLVEMLGLLHRIAMVQLSPAALGNDMAAIELRMRELARTIPPTDIQLYYQTLLIGRKELPYAPDRRMGVEMTLLRALAFHPRMPLPEPEVPRQSFAPVAPTAVMTPTQVPPQPQSAPQQAPTVPLPETTSQVLAARQQLQRVQGATKAKKE
For B1, in the data set “cryo-EM structure”, the binding result is given as “binds”.
